Paper PMC6649833

B1: N15 symmetric consensus OR 16 bp (dsDNA)
DNA 1: TTTATAGCTAGCTATAA
DNA 2: TTTATAGCTAGCTATAA
B2: N15 OR3 28 bp (dsDNA)
DNA 1: GCAAAATTATAGCCAGCTATAAAGAGCG
DNA 2: CGCTCTTTATAGCTGGCTATAATTTTGC

Experiments:
[1] = biological target: T1, N15 Cro (bacteriophage N15, UniProt Q37964 1-71); assay: X-ray crystallography
T1 sequence: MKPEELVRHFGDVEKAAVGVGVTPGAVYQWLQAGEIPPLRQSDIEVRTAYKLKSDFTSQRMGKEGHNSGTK

[2] = biological target: T2, N15 Cro-His6 (bacteriophage N15, UniProt Q37964 1-71); assay: EMSA
T2 sequence: T1 sequence

[3] = biological target: T1, N15 Cro; assay: EMSA

Row | Binder | binding result [1] | Kd [2] | Kd [3]
1 | B1 | binds |  | 
2 | B2 |  | 91 ± 11 nM | 90 ± 7 nM
